The values that follow come from US20250188136A1, “AV3 MUTANT POLYPEPTIDES FOR PEST CONTROL” (Vestaron Corporation, priority 2021, published 2025).

“Also recorded” adds a separate entry of the source. Ends that are not written are not given here.

A short description of data set [1]: Circular dichroism assay, melting temperature. Type of data set: physicochemical. The note with it: 10 mM Na3PO4 solution, pH 5.9; 20° C. to 98° C. Here is the method:
A JASCO J-1500 CD spectrometer (JASCO, 28600 Mary's Court, Easton, MD 21601 USA) was used to measure the CD spectrum and the secondary structure information of the Av3bM24, Av3bM165, Av3bM103, and Av3bM170 peptides (with Av3b as a comparator). The peptides were prepared in 10 mM Na3PO4 solution, pH 5.9, and loaded into the cuvette for CD spectrum measurement. Measurements were processed with a light wavelength scan ranging from 180 nm to 250 nm, with a 1 nm interval; the temperature graduate changed from 20° C. to 98° C., with 2° C. interval.
(In general: Circular dichroism is the unequal absorption of left and right circularly polarised light.)

Data set [2] is described as follows: Stability of purified peptide spiked into Av3b fermentation beer (rpHPLC). Type of data set: physicochemical. Here is the method:
To determine the stability of the new mutants, Av3bM19, Av3bM23, Av3bM24, Av3bM25, Av3bM27, and Av3bM28 were purified and incubated in Av3b fermentation beer. The mutants were purified by cation-exchange chromatography using a GE SP-Sephadex C-25 column. The column was first calibrated with 30 mM sodium citrate buffer at pH 3.0. Then, the culture supernatant containing the secreted mutant peptide was loaded into the column to let the mutant peptide bind to the resin. The column was then washed with 30 mM sodium citrate buffer, pH 3.0, followed by washing with 30 mM sodium acetate, pH 4.0. Next, the bound mutant peptide was eluted by 1 M or 2 M NaCl with 30 mM sodium acetate, pH 4.0. The elution was then concentrated and buffer-exchanged to 30 mM sodium acetate, pH 4.0 using a 1 kD cutoff spin concentrator.
After purification, each of the mutants, Av3bM19, Av3bM23, Av3bM24, Av3bM25, Av3bM27, and Av3bM28, were evaluated for stability by spiking them into Av3b strain fermentation beer at pH 6.5. As a negative control, Av3b was evaluated in a pH 4.0 buffer. As a positive control, purified Av3b was evaluated by spiking into the same Av3b fermentation beer at pH 6.5. All stability experiments were performed at room temperature. […] The amount of peptide remaining relative to the beginning was determined by normalizing the peak area at different time to the one at 0 hour for each treatment. The degradation trend is visualized by the bar graph of the relative remaining peptide amount trend.

Data set [3] concerns Helicoverpa zea. In words: Lepidoptera injection assay, corn earworm (CEW). Type of data set: in vivo. Here is the method: An injection assay was performed on Helicoverpa zea (corn earworm or “CEW”) and Spodoptera frugiperda (fall armyworm or “FAW”). Injections comprised a given Av3b mutant peptide combined with water to arrive at the planned dose. The Av3b mutants included Av3bM24; Av3bM165; Av3bM103; and Av3bM170. Av3b was used as a control.
Insects were reared on an artificial diet prepared from General Purpose Lepidoptera diet (Frontier Scientific, Newark, DE 19713, product No. F9772) according to the manufacturer's instructions. To perform the insect injection bioassay, 5 mL of hot diet was dispensed into the well of a rearing tray (Bio-Service Inc., Bio-RT-32), with 8 wells per injection treatment. The hot diet was then allowed to cool and solidify. Next, third instar larva were incubated on ice in order to immobilize them. Injections were prepared on a hand-microapplicator with injection solution (>100 μL) in 1-cc all-glass syringe having a 30 gauge straight needle. Air bubbles were removed from the syringe, and the syringe was set it up on the microapplicator. Injection volume was adjusted in the microapplicator at 2 μL.
To inject the larva, the insects were picked up and positioned close to the injection needle. The needle was allowed to penetrate the cuticle of the third pro-leg of the larva. The injection knob of the microapplicator was then rotated to inject a 2 μL solution into hemolymph from the third pro-leg. After injection the larva maintained on the needle for a few seconds to make sure the injected solution was absorbed. Then, the larva were gently removed from the needle and placed into the wells of prepared tray, along with 5 mL of solidified diet per well. Finally, the tray was sealed with vent covers.
Injected larva were incubated at 28° C. in an insect incubator, and scored at 24-hours post-injection based on their condition. Insect conditions were categorized as follows: alive (walking, eating, normal behavior); affected (showing toxic symptoms, such as tremors, writhing, unbalanced gait, or a combination thereof), knockdown (paralyzed albeit able to move with gentle poke); and dead (unmoving, discoloration, or a combination thereof).

Data set [4] concerns houseflies. In words: Housefly injection assay (knock-down). The data set is classed as in vivo, Musca domestica. On the procedure: An exemplary housefly injection bioassay is as follows: conditioned media is serially diluted to generate full dose-response curves from the housefly injection bioassay. Before injection, adult houseflies (Musca domestica) are immobilized with CO2, and 12-18 mg houseflies are selected for injection. A microapplicator, loaded with a 1 cc syringe and 30-gauge needle, is used to inject 0.5 μL per fly, doses of serially diluted conditioned media samples into houseflies through the body wall of the dorsal thorax. The injected houseflies are placed into closed containers with moist filter paper and breathing holes on the lids, and they are examined by knock-down ratio or by mortality scoring at 24 hours post-injection. Normalized yields are calculated. Peptide yield means the peptide concentration in the conditioned media in units of mg/L. However, peptide yields are not always sufficient to accurately compare the strain production rate. […] A culture with a high cell density may produce a higher concentration of the peptide in the media, even though the peptide production rate of the strain is lower than another strain which has a higher production rate. Accordingly, the term “normalized yield” is created by dividing the peptide yield with the cell density in the corresponding culture and this allows a better comparison of the peptide production rate between strains. The cell density is represented by the light absorbance at 600 nm with a unit of “A” (Absorbance unit).
A housefly injection assay was performed to determine the activity of the new mutants. Adult houseflies were immobilized with CO2 for 10 minutes, and then transferred to a CO2 pan to keep immobilized. Flies with weight between 12-20 mg were picked for injection. The new mutants and Av3b control were diluted in water to proper doses for injection. Next, a 0.5 μL peptide solution was injected into each housefly at the dorsal thorax using a hand-microapplicator with 1 cc all-glass syringe with 30 gauge straight needle. The injected flies were then transferred to a 2 oz. transparent portion container with a wet #4 filter paper. Fly knock-down was assessed at 5-hours post-injection. The activity of a given new mutant was then normalized to the activity of the Av3b production strain (control), using the fly knock-down score at 5 hours.

Regarding “KSCCPCYWGGCPWGQNCYPEGCDGPK (ends and bridges not checked; cysteine pairing not given here) [Av3bM24]”, in data set [1], the “CD Melting temperature” value amounted to 80 °C. The half-degradation time in data set [2] (Av3b production fermentation beer pH 6.5, room temperature (Example 11, FIG. 37)) was determined as 652 h. Besides, the peptide remaining in data set [2] (fermentation beer pH 6.5, room temperature, 248 hours, HPLC peak area relative to starting amount) is recorded as 84%. The “resistance to fermentation beer protease cleavage compared to Av3b” value in data set [2] (spiked into Av3b fermentation beer pH 6.5, room temperature) is recorded as “greater resistance to yeast fermentation beer protease cleavage; also recorded: improved resistance to fermentation beer cleavage; also recorded: resist the degradation in Av3b fermentation beer”. The “knock-down effects compared to Av3b” value in data set [3] (CEW and FAW injection, KD50) was “comparable knock-down effects to Av3b”. The “KD50 CEW” value in data set [3] (third instar larva, 2 μL injection, scored at 24-hours post-injection) was 428 ± 131 (N = 4) pmol/g. Further, the “housefly knock-down / insecticidal activity relative to Av3b” value in data set [4] (knock-down at 5 hours post-injection) was “without a concomitant reduction in housefly knock-down activity; also recorded: insecticidal activity”. Besides, in data set [4] (knock-down at 5 hours post-injection normalized to Av3b, Yes = insecticidal activity maintained), the Activity entry is “Yes”.
